Assay results as given in PMC4731787, “Structural basis for the recognition of two consecutive mutually interacting DPF motifs by the SGIP1 μ homology domain” (Scientific Reports, 2016).
Like-named read-outs stand apart in the source and are kept apart here. Each block holds one molecule with its values, some of them ahead of it. Where no end group is shown, it is not given here. GST = glutathione S-transferase fusion tag

How the values were obtained:
[1] = target: T1, SGIP1 µ homology domain (µHD), residues 552 to 828 (human, UniProt Q9BQI5-1 552-828); assay: ITC; µHD, µHD mutant or α-adaptin appendage domain in the sample cell, titrated with the Eps15 fragment or peptide; 50 mM Tris-HCl (pH 8.0), 50 mM NaCl, 25 °C; VP-ITC; two data sets fitted globally (NITPIC, SEDPHAT); single-site model; conditions: both partners purified
T1 construct: pGEX-6P-1 construct cut with 3C protease; also called SGIP1 µHD; human SGIP1 µHD (aa552–828); source: E. coli BL21-Gold (DE3) or Rosetta2, purified (Glutathione Sepharose 4B, 3C protease cleavage, Superdex 200)
T1 sequence (looked up): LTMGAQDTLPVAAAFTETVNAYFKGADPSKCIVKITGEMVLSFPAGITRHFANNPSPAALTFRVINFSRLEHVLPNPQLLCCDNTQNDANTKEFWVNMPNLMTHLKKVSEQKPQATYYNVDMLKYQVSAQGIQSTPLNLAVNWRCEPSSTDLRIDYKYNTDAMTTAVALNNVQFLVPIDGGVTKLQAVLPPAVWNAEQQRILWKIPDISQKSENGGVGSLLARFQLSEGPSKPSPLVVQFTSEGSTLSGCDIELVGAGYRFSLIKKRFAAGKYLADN

[2] = target: T2, SGIP1 μHD (residues 552 to 828) (Homo sapiens, UniProt Q9BQI5); assay: ITC of Eps15 fragments with the SGIP1 μHD; format: binding; conditions: for Kd: 50 mM Tris-HCl pH 8.0, 50 mM NaCl, global fit of two runs
T2 construct: the SGIP1 μHD (residues 552 to 828); GST (N, cleaved yes); made in house; host or cells: Escherichia coli BL21-Gold (DE3) or Rosetta2
T2 sequence (Q9BQI5 552-828): T1 sequence (looked up)
Procedure: For the majority of the ITC experiments, the SGIP1 μHD, its mutants, or the FCHo1 μHD, in 50 mM Tris-HCl buffer (pH 8.0) containing 50 mM NaCl, was loaded in the sample cell, in a volume of 1.42 ml, and titrated with various Eps15-derived fragments or peptides in the same buffer, with an initial 5 μl injection and subsequent 10 μl injections, for a total of 25 injections. The titrations were performed while the samples were stirred at 310 r.p.m. at 25 °C. Each injection was followed by an interval of 4 min, to allow baseline stabilization. For the other ITC experiments indicated in Supplementary Table 2, the Eps15-derived fragments or peptides in the sample cell were titrated with the SGIP1 or FCHo1 μHD. All ITC experiments were performed on a VP-ITC microcalorimeter (MicroCal, LLC) and repeated twice, and the data were processed with the program NITPIC[42]. The two data sets from each ITC experiment were analyzed by global weighted least-squares fitting with the program SEDPHAT[43]. Figures for the ITC data were created with the program GUSSI (http://biophysics.swmed.edu/MBR/software.html). To obtain the values of the traditional stoichiometric parameter N in our ITC data analyses (Supplementary Table 2), we used the values of the parameters of the incompetent fractions of proteins and ligands. […] The values of the incompetent fractions are between 0 and 1, whereas the other parameter affecting the traditional parameter N, the number of sites, was fixed as 1 and 2, for the single- and two-site models, respectively. Thus, in the two-site model, the values of N for the first and second sites are identical in our ITC data analyses (Supplementary Table 2).

[3] = 25 °C, fragment in cell titrated with μHD, two-site model, first site
[4] = 25 °C, fragment in cell titrated with μHD, two-site model, second site

B1: Eps15-640–649 (peptide)
peptide: Ac-YDPFGGDPFKG-NH2
notes: extra (artificial) N-terminal Tyr residue, to facilitate the concentration determination by absorbance; source: synthetic peptide (Eurofins Genomics)
- Kd [1]: 30.2 µM
- stoichiometry N [1]: 0.66

B2: Eps15-640–649F642W (peptide)
peptide: Ac-YDPWGGDPFKG-NH2
notes: artificial N-terminal Tyr; source: synthetic peptide (Eurofins Genomics)
- Kd [1]: 229 µM

B3: Eps15-640–649D645N (peptide)
peptide: Ac-YDPFGGNPFKG-NH2
notes: as for B2
- Kd [1]: 73.1 µM

B4: Eps15-640–649D640N (peptide)
peptide: Ac-YNPFGGDPFKG-NH2
notes: as for B2
- Kd [1]: 103 µM

B5: Eps15-640–649D640E (peptide)
peptide: Ac-YEPFGGDPFKG-NH2
notes: as for B2
- Kd [1]: 325 µM

B6: Eps15-628–654 (peptide)
peptide: Ac-YSDPFKDDPFGKIDPFGGDPFKGSDPFA-NH2
notes: as for B2
- stoichiometry N [1]: 0.67

B7: Eps15-618–648 (domain or fragment, human)
chain: GPLGSYDFFQSDPFVGSDPFKDDPFGKIDPFGGDPFK
notes: source: E. coli, expressed and purified in the same manner as the SGIP1 µHD
- stoichiometry N [1]: 0.71

B8: Eps15-662–676 (peptide)
peptide: Ac-YSTDPFATSSTDPFSA-NH2
notes: as for B2
- Kd [1]: 125 µM

B9: GST-Eps15-530–594: GST-tagged Eps15 fragment, residues 530–594, 0 DPF motifs (protein)
chain: {GST}-STSSSETANLNEHVEGQSNLESEPIHQESPARSSPELLPSGVTDENEVTTAVTEKVCSELDNNRH
- Kd ([2]; 25 °C, μHD in sample cell titrated with Eps15 fragment, single-site model, ± 68.3% confidence interval): below detection limit

B11: Eps15-632–644 (peptide)
peptide: Ac-YKDDPFGKIDPFGG-NH2
notes: artificial N-terminal Tyr; human Eps15 residues 632-644; source: synthetic peptide (Eurofins Genomics)
- Kd [1]: 80.8 µM

B14: Eps15-628–639 (peptide)
peptide: Ac-YSDPFKDDPFGKI-NH2
notes: as for B2
- Kd [1]: 264 µM

B17: Eps15-645–654 (peptide)
peptide: Ac-YDPFKGSDPFA-NH2
notes: as for B1
- Kd [1]: 22.4 µM
- stoichiometry N [1]: 0.75

B18: GST-Eps15-595–660: GST-tagged Eps15 fragment, residues 595–660, 7 DPF motifs (protein, UniProt P42566 595-660, looked up, fragment)
chain: {GST}-SKEEDPFNVDSSSLTGPVADTNLDFFQSDPFVGSDPFKDDPFGKIDPFGGDPFKGSDPFASDCFFR
- Kd ([2]; 25 °C, Eps15 fragment in cell titrated with SGIP1 μHD, two-site model, first (higher-affinity) site, ± 68.3% confidence interval, read-out: Kd): 0.046 ± 0.015 µM
- Kd ([2]; 25 °C, Eps15 fragment in cell titrated with SGIP1 μHD, two-site model, second site, 68.3% confidence interval, read-out: Kd, second site): 16.6 ± 4.1 µM
- -TΔS [2, 3]: -2450 cal/mol
- ΔG [2, 3]: -10012 cal/mol
- ΔH ([2]; 25 °C, fragment in cell titrated with μHD, two-site model, first site, ± 68.3% confidence interval): -7562 ± 103 cal/mol
- -TΔS, second site [2, 4]: 328 cal/mol
- ΔG, second site [2, 4]: -6520 cal/mol
- ΔH, second site ([2]; 25 °C, fragment in cell titrated with μHD, two-site model, second site, 68.3% confidence interval): -6848 ± 772 cal/mol
- N (binding ratio of Eps15 fragment to μHD) ([2]; fragment in cell titrated with μHD, two-site model, first site (N identical for both sites), ± 68.3% confidence interval): 1.17 ± 0.02
- N, second site ([2]; fragment in cell titrated with μHD, two-site model, second site (N identical for both sites), ± 68.3% confidence interval): 1.17 ± 0.02

The remaining lines, values ahead:

- Kd [1]: 20.2 µM
- stoichiometry N [1]: 0.76
B10: Eps15-628–644 (peptide)
peptide: Ac-YSDPFKDDPFGKIDPFGG-NH2
notes: as for B2

- Kd [1]: 1 µM
- stoichiometry N [1]: 0.86
B12: GST-Eps15-628–654 (domain or fragment, human)
chain: {GST}-SDPFKDDPFGKIDPFGGDPFKGSDPFA
notes: source: E. coli, purified (Glutathione Sepharose 4B, glutathione elution, Superdex 200); not shown: GST, N-terminal, kept

- Kd [1]: 0.65 µM
- stoichiometry N [1]: 0.92
B13: GST-Eps15-628–644 (domain or fragment, human)
chain: {GST}-SDPFKDDPFGKIDPFGG
notes: as for B12

- Kd [1]: 4.9 µM
- stoichiometry N [1]: 0.85
B15: Eps15-622–637 (peptide)
peptide: Ac-YSDPFVGSDPFKDDPFG-NH2
notes: as for B2

- Kd [1]: 3.2 µM
- stoichiometry N [1]: 0.7
B16: Eps15-632–654 (peptide)
peptide: Ac-YKDDPFGKIDPFGGDPFKGSDPFA-NH2
notes: as for B2
